From paper PMC6978369, “Peptidoglycan reshaping by a noncanonical peptidase for helical cell shape in Campylobacter jejuni” (Nature Communications, 2020)

Key:
Pgp3 = molecular target: T1, Pgp3 (Campylobacter jejuni, UniProt A0AAD2UT50); assay: LC/MS turnover assay; type: biochemical; conditions: D,D-endopeptidase; 50 mM Tris pH 7.5, 23 °C
T1 construct: gene A8118_01115; residues 21-273 (Glu21 to Gln273 in Methods, Asn273 in Results) without N-terminal 20 residues, of 274 aa; expressed in E. coli Rosetta2 (DE3); Zn enzyme

[1] = molecular target: Pgp3 H247A mutant, residues 21-273 (C. jejuni (strain ATCC 33560)); assay: crystal structure; H247A protein (10 mg/mL, 20 mM Tris-HCl pH 8.0, 200 mM NaCl) mixed with peptide in a 1:10 molar ratio, 277 K for 1 h; crystals grown at 296 K in 1.8 M ammonium citrate tribasic pH 7.0

T1 sequence (A0AAD2UT50 entry or part of it): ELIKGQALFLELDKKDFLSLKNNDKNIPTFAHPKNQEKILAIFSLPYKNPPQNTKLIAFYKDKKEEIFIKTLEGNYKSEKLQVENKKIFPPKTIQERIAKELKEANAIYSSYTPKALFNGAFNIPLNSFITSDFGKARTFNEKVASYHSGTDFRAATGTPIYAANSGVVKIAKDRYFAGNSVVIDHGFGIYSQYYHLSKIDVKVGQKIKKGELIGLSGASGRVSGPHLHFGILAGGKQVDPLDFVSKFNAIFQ

Compound: CO[C@@H]1O[C@H](CO)[C@@H](O)[C@H](O[C@H](C)C(=O)N[C@@H](C)C(=O)N[C@H](CCC(=O)N[C@@H](CCC[C@@H](NC(=O)[C@@H](C)NC(=O)[C@H](CCC[C@@H](N)C(=O)O)NC(=O)CC[C@@H](NC(=O)[C@H](C)NC(=O)[C@@H](C)O[C@H]2[C@H](O)[C@@H](CO)O[C@@H](OC)[C@@H]2NC(C)=O)C(=O)O)C(=O)O)C(=O)O)C(=O)O)[C@H]1NC(C)=O [compound 2, crosslinked muramyl tetra-tri peptide]
- LC/MS turnover assay (Pgp3): Pgp3 exhibited both D,D-carboxypeptidase and D,D-endopeptidase activities based on LC/MS analysis

Compound: crosslinked muramyl tetra-tri peptide 2, NAM-L-Ala1-γ-D-Glu2-mDAP3-D-Ala4-mDAP3-γ-D-Glu2-Ala1-NAM
- stoichiometry N [1]: 1

Compound: pentapeptide 1, Ac-L-Ala1-γ-D-Glu2-mDAP3-D-Ala4-D-Ala5
- stoichiometry N [1]: 1
